Data on three molecules can be found in patent US20240358847A1, “TROP2 BINDERS AND CONJUGATES THEREOF” (MERCK SHARP & DOHME LLC, priority 2023, published 2024).

A short description of series [1]: Hydrophobic interaction chromatography (HIC). Format: physicochemical. Conditions: butyl HIC column, FIG. 4. The procedure: The samples are eluted using an inverted gradient from mobile phase A to 50 mM sodium phosphate, pH 7.0/isopropanol (80:20 v/v) (mobile phase B). The elution is followed by recording the A280 nm as a function of time, the data is then exported and analyzed using the Empower software.
(§1) Developability characteristics for various mutants were performed as in Bailly Et al., Predicting Antibody Developability Profiles Through Early Stage Discovery Screening, MABS 12 (1): e1743053 (2020) (doi: 10.1080/19420862.2020.17430530), which is incorporated herein by reference in its entirety. Various methods used may be found herein under General Methods.

Another series is described as follows: UP-SEC aggregation. Format: physicochemical. The procedure:
as §1
(In gel filtration, larger molecules generally elute earlier.)

Series [2] in a line: Drug antibody ratio (DAR) of ADC by MS / HIC. Format: physicochemical. The protocol: A 100 mM solution of dehydroascorbic acid (8.0 equiv.) in water was added slowly and the solution was mixed at room temperature for 4-10 hours or until completion (monitored by reverse phase liquid chromatography (RP-LC) and sodium dodecyl sulfate capillary electrophoresis (CE-SDS)). A 20 mg/mL solution of linker-payload (3.0 equiv.) in DMSO was added and the conjugation was incubated at room temperature for 2 hours (monitored by Quadrupole time-of-flight (QTOF) mass spectrometry (MS)) before addition of L-cysteine (5 equiv., 50 mM in water) to quench residual linker-payload. […] The ADC was brought to the final desired concentration using Sartorius Vivacell 70 Centrifugal Concentrators and Amicon® Ultra Centrifugal Filters.
The control antibody profile is the unconjugated antibody.

For series [3], the system named is BxPC3 pancreatic cancer cells. Nature of the series: In vivo anti-tumor efficacy in BxPC3 mouse model. Conditions: dose response, IV single dose, FIG. 14. Also on record: species or system BALB/c nude mice. The protocol:
Experimental protocol: 7-8 week old female BALB/c nude mice were purchased from Gempharmatech Co., Ltd. ([…]). […] Mouse body weights and tumors were measured twice weekly, and tumor volumes calculated using the formula V=0.5 [a*b2]; where a and b are the long and short diameters of the tumor, respectively. 110 mice were assigned to 11 groups of 10 mice each using a computer-generated randomization procedure to minimize tumor volume variance across groups. Treatments were started when tumors reached an average size of 200 mm^3. PBS and the MMAE conjugates were dosed intravenously (IV) at 2 mg/kg according to Table 25.
Mouse body weights and tumors were measured twice weekly, and tumor volumes calculated using the formula V=0.5 [a*b2]; where a and b are the long and short diameters of the tumor, respectively. 70 mice were assigned to 7 groups of 10 mice each using a computer-generated randomization procedure to minimize tumor volume variance across groups. Treatments were started when tumors reached an average size of 200 mm^3. PBS, a control mAb, and bioconjugate were dosed intravenously (IV) according to Table 26.

A short description of another series: Non-reducing CE-SDS. The series is classed as physicochemical. The protocol:
as §1

Series [4] is described as follows: Rat PK of αTROP2 MMAE ADC (tAb, cAb, released MMAE). The series is classed as in vivo, Wistar Hannover Rats. Conditions: 5 mg/kg IV, up to 14 days, LLOQ […].
Protocol: Plasma concentrations of payload conjugated anti-TROP2 antibody (cAb), total antibody (tAb), and released payload were measured up to 14 days post dose.

B1: αTROP2 (HC:BSM-YTE-S375C) (LC:BSM-Y53D): HC SEQ ID NO: 20 or 90; LC SEQ ID NO: 22 (antibody)
heavy: QVQLLQSGSELKKPGASVKVSCKASGYTFTNYGMNWVRQAPGQGLKWMGWINTYTGEPTYTDDFKGRFSFSLDTSVSQAYLQISSLKAEDTAVYYCARGGFGSSYWYFDVWGQGTLVTVSSASTKGPSVFPLAPSSKSTSGGTAALGCLVKDYFPEPVTVSWNSGALTSGVHTFPAVLQSSGLYSLSSVVTVPSSSLGTQTYICNVNHKPSNTKVDKKVEPKSCDKTHTCPPCPAPELLGGPSVFLFPPKPKDTLYITREPEVTCVVVDVSHEDPEVKFNWYVDGVEVHNAKTKPREEQYNSTYRVVSVLTVLHQDWLNGKEYKCKVSNKALPAPIEKTISKAKGQPREPQVYTLPPSRDELTKNQVSLTCLVKGFYPCDIAVEWESNGQPENNYKTTPPVLDSDGSFFLYSKLTVDKSRWQQGNVFSCSVMHEALHNHYTQKSLSLSPGK
light: DIQLTQSPSSLSASVGDRVTITCKASQDVSIAVAWYQQKPGKAPKLLIYSASDRYTGVPSRFSGSGSGTDFTLTISSLQPEDFATYYCQQHYITPLTFGPGTKVEIKRTVAAPSVFIFPPSDEQLKSGTASVVCLLNNFYPREAKVQWKVDNALQSGNSQESVTEQDSKDSTYSLSSTLTLSKADYEKHKVYACEVTHQGLSSPVTKSFNRGEC
modifications: YTE Fc mutations
Regarding B1, the HIC peak elution in series [1] amounted to 24.14 fraction.

B2: αTROP2 (HC: BSM-YTE-S375C-MMAE)(LC: BSM-Y53D) (conjugate)
heavy: B1 heavy
light: B1 light
As for B2, the “% HMW (SEC)” value in the series “UP-SEC aggregation” (Table 22) and in “UP-SEC aggregation” (Table 23) was 4.33% throughout. Moreover, the DAR in series [2] (Table 22) and in series [2] (Table 23) was 1.7 each time.

B3: ADC 1: αTROP2 (HC:BSM-YTE-S375C) (LC:BSM-Y53D) conjugated to MP-AA-PABC-MMAE (conjugate)
heavy: B1 heavy
light: B1 light
As to B3, the “Purity by UP-SEC” value in the series “UP-SEC aggregation” is on record as 96.4%. Besides, the tumor volume entry in series [3] is reported as “effective at reducing tumor volume”. For the same molecule, the “Purity by CE-SDS NR” value in the series “Non-reducing CE-SDS” turned out to be 94.7%. Also, the unconjugated antibody entry in series [2] (by MS) was “unconjugated antibody (1.2%)”. For the same molecule, in series [4], the “unconjugated MMAE in the plasma” value is on record as “no detectable”.
